Measurements as given in publication doi:10.1101/2020.02.13.948224 (bioRxiv, 2020).
Numbering of substitutions follows the chain as printed. One block for each binder: values may come before it.

Assays:
mouse RBPj (aa 53-474) = mouse RBPj (aa 53-474) (mouse, UniProt P31266 53-474); test: native gel or EMSA
native gel or EMSA = target: the molecule itself; test: native gel or EMSA

mouse RBPj (aa 53-474), sequence (P31266 53-474): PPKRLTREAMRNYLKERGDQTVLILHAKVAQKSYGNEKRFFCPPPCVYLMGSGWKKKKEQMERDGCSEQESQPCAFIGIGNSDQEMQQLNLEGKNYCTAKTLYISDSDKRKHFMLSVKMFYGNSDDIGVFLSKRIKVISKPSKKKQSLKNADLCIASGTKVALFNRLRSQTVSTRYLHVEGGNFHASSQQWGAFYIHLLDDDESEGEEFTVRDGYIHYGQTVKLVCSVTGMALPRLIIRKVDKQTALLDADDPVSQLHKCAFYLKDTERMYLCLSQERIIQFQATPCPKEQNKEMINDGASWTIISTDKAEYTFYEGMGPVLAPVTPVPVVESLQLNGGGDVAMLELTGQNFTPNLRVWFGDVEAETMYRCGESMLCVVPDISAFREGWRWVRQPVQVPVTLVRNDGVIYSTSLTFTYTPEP

binding result (mouse RBPj (aa 53-474)): binds
B1: human SMT3-MAML1 (aa 1-280) (domain or fragment, UniProt Q92585 1-280, looked up)
chain: MVLPTCPMAEFALPRHSAVMERLRRRIELCRRHHSTCEARYEAVSPERLELERQHTFALHQRCIQAKAKRAGKHRQPPAATAPAPAAPAPRLDAADGPEHGRPATHLHDTVKRNLDSATSPQNGDQQNGYGDLFPGHKKTRREAPLGVAISSNGLPPASPLGQSDKPSGADALQSSGKHSLGLDSLNKKRLADSSLHLNGGSNPSESFPLSLNKELKQEPVEDLPCMITGTVGSISQSNLMPDLNLNEQEWKELIEELNRSVPDEDMKDLFNEDFEEKKD

binding result (mouse RBPj (aa 53-474)): binds
B2: mouse N1ICD (aa 1744-2113) (domain or fragment, UniProt Q01705 1744-2113, looked up)
chain: VLLSRKRRRQHGQLWFPEGFKVSEASKKKRREPLGEDSVGLKPLKNASDGALMDDNQNEWGDEDLETKKFRFEEPVVLPDLSDQTDHRQWTQQHLDAADLRMSAMAPTPPQGEVDADCMDVNVRGPDGFTPLMIASCSGGGLETGNSEEEEDAPAVISDFIYQGASLHNQTDRTGETALHLAARYSRSDAAKRLLEASADANIQDNMGRTPLHAAVSADAQGVFQILLRNRATDLDARMHDGTTPLILAARLAVEGMLEDLINSHADVNAVDDLGKSALHWAAAVNNVDAAVVLLKNGANKDMQNNKEETPLFLAAREGSYETAKVLLDHFANRDITDHMDRLPRDIAQERMHHDIVRLLDEYNLVRSPQ
binding result (native gel or EMSA): binds

binding result (mouse RBPj (aa 53-474)): binds
B3: mouse N1^RAICD (aa 1744-2113) (domain or fragment, UniProt Q01705 1744-2113, looked up)
chain: B2 chain with R231A
